# From patent US20150246945A1 (JAPANESE FOUNDATION FOR CANCER RESEARCH, published 2015)
# Bridge positions count the residues as written; N and C are the ends. Ends that are not written are not given here. * marks the point of attachment. Biotin = O=C1N[C@H]2[C@H](CS[C@H]2CCCCC(=O)*)N1
# B1: Ep133 peptide (peptide)
# peptide: EHLHCLGSLCWP
# modifications: disulfide 5-10; also: FITC-modified, position not given here
# notes: Synthetic peptide, FITC-modified in fluorescence depolarization and cell staining
# B2: PE185 peptide (peptide)
# peptide: Ac-KHLQCVRNICWSNNNNSNNNNK(Biotin)-NH2
# modifications: not fully specified (bridges); printed as Ac-KHLQCVRNICWSNNNNSNNNNK(biotin)-NH2; cysteine pairing not given here
# B3: Ep301 control (peptide)
# peptide: KSLQSINNLSWP
# modifications: also: FITC-modified, position not given here
# notes: Ep301 with cysteine at positions 5 and 10 substituted by serine
# B4: Ep114 peptide (peptide)
# peptide: KHLQCVRNICWS
# modifications: disulfide 5-10; also: FITC-modified, position not given here
# notes: as for B1
# B5: Ep114(K1I) variant phage (peptide)
# chain: IHLQCVRNICWS
# modifications: not fully specified (bridges); cysteine pairing not given here; also: displayed on phage
# notes: also called variant in which lysine at the 1st residue was substituted by isoleucine (I); not shown: not described
# B6: Ep114(K1Y) variant phage (peptide)
# chain: YHLQCVRNICWS
# modifications: not fully specified (bridges); cysteine pairing not given here; also: displayed on phage
# notes: also called variant in which lysine was substituted by tyrosine (Y); not shown: not described
# B7: Ep114(K1N) variant phage (peptide)
# chain: NHLQCVRNICWS
# modifications: not fully specified (bridges); cysteine pairing not given here; also: displayed on phage
# notes: also called variant in which lysine at the 1st residue was substituted by asparagine (N); not shown: not described
# B8: Ep114(L3A) variant phage (peptide)
# chain: KHAQCVRNICWS
# modifications: not fully specified (bridges); cysteine pairing not given here; also: displayed on phage
# notes: not shown: not described
# B9: Ep114(K1A) variant phage (peptide)
# chain: AHLQCVRNICWS
# modifications: not fully specified (bridges); cysteine pairing not given here; also: displayed on phage
# notes: also called variant in which lysine at the 1st residue was substituted by alanine (A); not shown: not described
# B10: Ep114(K1S) variant phage (peptide)
# chain: SHLQCVRNICWS
# modifications: not fully specified (bridges); cysteine pairing not given here; also: displayed on phage
# notes: also called variant in which lysine at the 1st residue was substituted by serine (S); not shown: not described
# B11: Ep114(K1W) variant phage (peptide)
# chain: WHLQCVRNICWS
# modifications: not fully specified (bridges); cysteine pairing not given here; also: displayed on phage
# notes: also called variant in which lysine was substituted by tryptophan (W); not shown: not described
# B12: Ep114(K1M) variant phage (peptide)
# chain: MHLQCVRNICWS
# modifications: not fully specified (bridges); cysteine pairing not given here; also: displayed on phage
# notes: also called variant in which lysine was substituted by methionine (M); not shown: not described
# B13: Ep114(K1F) variant phage (peptide)
# chain: FHLQCVRNICWS
# modifications: not fully specified (bridges); cysteine pairing not given here; also: displayed on phage
# notes: also called variant in which lysine was substituted by phenylalanine (F); not shown: not described
# B14: Ep301 peptide (peptide)
# peptide: KSLQCINNLCWP
# modifications: disulfide 5-10; also: FITC-modified, position not given here
# B15: PE184 peptide (peptide)
# peptide: Ac-KHLQCVRNICWSGGSGGSK(Biotin)-NH2
# modifications: not fully specified (bridges); printed as Ac-KHLQCVRNICWSGGSGGSK(biotin)-NH2; cysteine pairing not given here
# notes: Ep114 with the linker GGSGGSK, biotin-modified
# B16: Ep114-displaying phage (peptide)
# chain: KHLQCVRNICWS
# modifications: cysteine pairing not given here; also: displayed on phage
# notes: not shown: fusion and linker not described
# B17: EpCAM partial sequence (sequence of EpCAM from residue 106 to 119) (peptide)
# peptide: KAKQCNGTSMCWPK
# modifications: cysteine pairing not given here; also: FITC-modified, position not given here
# Legend:
# [1] = biological target: T1, purified EpCAM (extracellular domain with myc and His tags at the C terminus, expressed in HEK-293T cells) (UniProt P16422 24-265, limits assumed); test: fluorescence depolarization, FITC-modified peptide, Hill fit
# T1 construct: extracellular domain; also called epithelial cell adhesion molecule; CD326
# T1 sequence (looked up): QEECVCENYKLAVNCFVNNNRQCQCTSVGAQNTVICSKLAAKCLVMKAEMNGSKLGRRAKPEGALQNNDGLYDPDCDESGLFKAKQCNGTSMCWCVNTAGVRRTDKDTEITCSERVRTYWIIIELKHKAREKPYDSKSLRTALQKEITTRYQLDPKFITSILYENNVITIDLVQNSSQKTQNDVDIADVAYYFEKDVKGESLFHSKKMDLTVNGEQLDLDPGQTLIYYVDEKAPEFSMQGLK
# Method: (§1) Each FITC-modified EpCAM peptide or control peptide was suspended at a concentration of approximately 100 μM in PBS. After centrifugation, the supernatant was collected and diluted 10-fold, and the absorbance was measured at 495 nm From the measurement value, the molar concentration of the peptide was determined using the formula of Beer-Lambert of the following expression 1: […]
# (§2) EpCAM is diluted with PBS into several concentrations from 0 until reaching equilibrium (40 nM for the Ep133 peptide), and the FITC-modified peptide whose precise concentration has been measured by the aforementioned method is added to the dilutions thus prepared. The sample was left at a temperature for measurement for 30 minutes or longer and subjected to polarization measurement using a spectrofluorometer FP-6500 (JASCO Corp.) equipped with an automatic polarization measurement unit (JASCO Corp., APH-103). Kd was estimated by curve fitting according to the Hill equation.
# [2] = biological target: T1, purified EpCAM (extracellular domain …); test: fluorescence depolarization
# Method: as §1, §2
# [3] = biological target: T2, EpCAM, whole protein on cells (HT-29, MCF-7, 293T transfected with full-length EpCAM plasmid pkk196) or on … (UniProt P16422 24-314, limits assumed); test: pull-down of HT-29 exosomes on peptide-loaded streptavidin beads, Western blot with anti-EpCAM
# T2 construct: whole, on cells; Used for both cell-surface EpCAM and EpCAM carried on HT-29 exosomes; the assay field says which; also called EpCAM on HT-29; EpCAM-expressing cells
# T2 sequence (looked up): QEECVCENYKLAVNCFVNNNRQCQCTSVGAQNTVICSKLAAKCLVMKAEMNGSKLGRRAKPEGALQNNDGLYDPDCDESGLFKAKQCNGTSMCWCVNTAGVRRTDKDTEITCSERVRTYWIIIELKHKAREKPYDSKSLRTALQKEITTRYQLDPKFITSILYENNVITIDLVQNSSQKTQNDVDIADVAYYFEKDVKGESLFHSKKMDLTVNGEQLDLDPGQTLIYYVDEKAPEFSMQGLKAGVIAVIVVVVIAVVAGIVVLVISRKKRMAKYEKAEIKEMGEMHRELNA
# Method: 250 μg of streptavidin-magnetic beads (Dynabeads® M-280 streptavidin, VERITAS Corp.) in TBS containing 2% BSA was added to 20 μg of the biotinylated Ep114 peptide and shaken at room temperature for 30 minutes, followed by washing with TBS. Beads reacted without the peptide were used as a control. The anti-Ep114 antibody was added to the beads in TBST and reacted at room temperature for 1 hour. After washing with TBS, the beads were collected. The collected beads were heated at 95° C. for 5 minutes in a SDS sample buffer. After Western-blotting, the anti-Ep114 antibody was detected using HRP-labeled anti-rabbit antibodies.
# The binding to exosomes was confirmed using the Western blot system in the similar method as in the preceding paragraph 1. Specifically, 20 μg of the biotinylated Ep114 peptide, the PE183 peptide, the PE184 peptide, or the PE185 peptide was bound to 250 μg of streptavidin-magnetic beads and then reacted with exosomes isolated from HT-29 cells as EpCAM-positive cells, followed by Western blot to detect the exosomes using anti-EpCAM polyclonal antibodies (see the left panel of FIG. 5C).
# [4] = biological target: T1, purified EpCAM (extracellular domain …); test: fluorescence depolarization, FITC-modified peptide
# Method: as §1, §2
# The dissociation constants of the EpCAM-binding peptide Ep301 (FIG. 2(D)) disclosed in Patent Literature 2 and Ep301 control (FIG. 2(E)), which was a control peptide derived from Ep301 by the substitution of cysteine at positions 5 and 10 by serine, and a sequence of EpCAM from residue 106 to 119 (FIG. 2(F)) having partial homology to EpCAM-binding peptides were measured similarly.
# [5] = biological target: T1, purified EpCAM (extracellular domain …); test: phage bound to EpCAM, captured on beads, phages counted
# Method: The analysis was conducted using the variants in which lysine at the 1st residue was substituted by alanine (A), asparagine (N), serine (S), or isoleucine (I), and M13KE, Ep114, and the variant in which leucine at the 3rd residue was substituted by alanine as controls. Each phage of 1×10¹⁰ PFU was bound to 1 μg of EpCAM, and then mixed with 0.4 mg of beads pretreated overnight with 0.5% BSA and B&W buffer (5 mM Tris-HCl (pH 7.5), 0.5 mM EDTA, and 1 M NaCl). The number of phages bound to the beads was counted.
# [6] = biological target: T1, purified EpCAM (extracellular domain …); test: phage ELISA on immobilized EpCAM
# Method: The phages displaying the peptides in which each amino acid of Ep114 was substituted by alanine are added to the EpCAM- or anti-Ep114 antibody-immobilized plate, and the plate is left still at room temperature for 1 hour. After washing with TBST, HRP-labeled anti-M13 antibodies were reacted therewith, followed by detection using ABTS (2,2′-azinobis(3-ethylbenzothiazoline-6-sulfonic acid). The binding activity against EpCAM is shown in FIG. 3A, and the binding activity against the anti-Ep114 antibody is shown in FIG. 3B. M13KE is a phage displaying no peptide and is a negative control.
# As with the alanine substitution variants, variant phages were prepared by the introducing specific mutations to lysine at the 1st residue based on inverse PCR method and analyzed for binding activity against EpCAM. The analysis method involved evaluation by ELISA in the same way as in the functional analysis of the Ep114 peptide by the alanine scanning. In the figure, EpCAM+ and EpCAM− represent the presence and absence of EpCAM immobilization onto a plate, respectively. Corrected value represents a value subtracting the measurement of EpCAM− from the measurement of EpCAM+.
binder,measurement,setting,value
B1,Kd,[1],1.5 nM
same,fold strength of binding compared with Ep301,[2],≥ 10 times
B2,binding result,[3],binds
B3,binding result,[4],no binding
B4,Kd,[1],1.6 nM
same,fold strength of binding compared with Ep301,[2],≥ 10 times
B5,binding result,[5],binds
B6,binding result,[6],binds
B7,binding result,[5],binds
B8,binding result,[5],binds
B9,binding result,[5],binds
B10,binding result,[5],binds
B11,binding result,[6],binds
B12,binding result,[6],binds
B13,binding result,[6],binds
B14,Kd,[1],20 nM
B15,binding result,[3],binds
B16,binding result,[5],binds
B17,binding result,[4],no binding
